This note sets out measurements from patent US20210380702A1 (Regeneron, published 2021).

For assay [1], the target named is T1, recombinant human PD-L1 (amino acids 19-239 of NP_054862.1) with a C-terminal myc-myc-hexahistidine tag (human).
T1 construct: also called hPD-L1-MMH; hPD-L1-MMH Monomer
Briefly: SPR (Biacore), mAb captured, 37C. The method, then:
(§1) Binding association and dissociation rate constants (kₐ and kd, respectively), equilibrium dissociation constants and dissociation half-lives (KD and t_{1/2}, respectively) of antigen binding to purified anti-PD-L1 monoclonal antibodies were determined using a real-time surface plasmon resonance biosensor assay on a Biacore 4000 instrument. The Biacore sensor surface was either derivatized with polyclonal rabbit anti-mouse antibody (GE, #BR-1008-38) or with monoclonal mouse anti-human Fc antibody (GE, #BR-1008-39) to capture approximately 200-300 RUs of anti-PD-L1 monoclonal antibodies, expressed with either a mouse Fc or with human Fc, respectively. […] Different concentrations of PD-L1 reagents were injected over the anti-PD-L1 monoclonal antibody captured surface at a flow rate of 30 μL/min. The binding of the PD-L1 reagents to the captured monoclonal antibodies was monitored for 3 to 4 minutes while the dissociation of antibody bound PD-L1 reagents was monitored for 10 minutes in HBST running buffer (0.01 M HEPES pH 7.4, 0.15 M NaCl, 3 mM EDTA, 0.05% v/v Surfactant tween-20). Experiments were performed at either 25° C. or 37° C. Kinetic association (kₐ) and dissociation (kd) rate constants were determined by processing and fitting the data to a 1:1 binding model using Scrubber 2.0c curve fitting software. Binding dissociation equilibrium constants (KD) and dissociative half-lives (t_{1/2}) were then calculated from the kinetic rate constants as: KD (M)=kd/kₐ and t_{1/2} (min)=[In2/(60*kd)].
(In general: SPR reads the build-up and loss of mass on a sensor chip optically.)

For assay [2], the target named is T2, Human PD-L1 Dimer (human, UniProt Q9NZQ7 19-239).
T2 construct: also called hPD-L1 dimer; hPD-L1-hFc
T2 sequence (Q9NZQ7 19-239): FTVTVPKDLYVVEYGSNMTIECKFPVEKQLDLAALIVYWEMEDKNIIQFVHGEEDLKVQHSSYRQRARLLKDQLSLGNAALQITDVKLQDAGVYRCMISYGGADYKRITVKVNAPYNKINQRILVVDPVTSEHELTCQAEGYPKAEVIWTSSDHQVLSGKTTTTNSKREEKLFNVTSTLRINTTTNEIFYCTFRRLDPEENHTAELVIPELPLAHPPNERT
Briefly: SPR (Biacore), mAb captured, 37C. The method, then: as §1

Assay [3] concerns the target T3, recombinant cynomolgus monkey PD-L1 with a C-terminal myc-myc-hexahistidine tag (cynomolgus monkey (Macaca fascicularis)).
T3 construct: also called MfPD-L1-MMH; MfPD-L1-MMH Monomer
Put plainly: SPR (Biacore), mAb captured, 37C. On the procedure:
as §1

The target of assay [4] is T2, Human PD-L1 Dimer. Put plainly: SPR (Biacore), mAb captured, 25C. The method, then: as §1
Assay [5] deals with T3, recombinant cynomolgus monkey PD-L1 …. Put plainly: SPR (Biacore), mAb captured, 25C. On the procedure: as §1
Assay [6] has as its target T4, recombinant cynomolgus monkey PD-L1 with a C-terminal mouse IgG2a Fc tag (cynomolgus monkey (Macaca fascicularis)).
T4 construct: also called MfPD-L1-mFc; monkey PD-L1-mFc
Put plainly: SPR (Biacore), mAb captured, 25C. On the procedure: as §1

A word on the Kd: it is the concentration at which binding is half-saturated. As a reminder, the koff is the rate constant with which the complex falls apart. Usually kon stands for the second-order rate constant of association.

T1 sequence (chain, as listed by the source limits assumed): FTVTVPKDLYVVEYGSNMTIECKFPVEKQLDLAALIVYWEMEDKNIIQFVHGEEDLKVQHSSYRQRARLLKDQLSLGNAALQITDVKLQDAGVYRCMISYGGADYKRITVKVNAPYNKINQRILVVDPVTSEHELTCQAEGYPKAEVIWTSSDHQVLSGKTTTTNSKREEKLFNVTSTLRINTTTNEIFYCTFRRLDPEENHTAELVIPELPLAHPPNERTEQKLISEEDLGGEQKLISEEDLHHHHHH
T3 sequence (chain, as listed by the source limits assumed): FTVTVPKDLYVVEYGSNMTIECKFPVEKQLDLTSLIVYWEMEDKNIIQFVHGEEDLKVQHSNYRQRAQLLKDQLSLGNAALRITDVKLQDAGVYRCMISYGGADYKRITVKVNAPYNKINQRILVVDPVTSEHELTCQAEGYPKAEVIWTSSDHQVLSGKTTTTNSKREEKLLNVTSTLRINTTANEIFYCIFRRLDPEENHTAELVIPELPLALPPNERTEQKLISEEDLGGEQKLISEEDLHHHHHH
T4 sequence (chain, as listed by the source limits assumed): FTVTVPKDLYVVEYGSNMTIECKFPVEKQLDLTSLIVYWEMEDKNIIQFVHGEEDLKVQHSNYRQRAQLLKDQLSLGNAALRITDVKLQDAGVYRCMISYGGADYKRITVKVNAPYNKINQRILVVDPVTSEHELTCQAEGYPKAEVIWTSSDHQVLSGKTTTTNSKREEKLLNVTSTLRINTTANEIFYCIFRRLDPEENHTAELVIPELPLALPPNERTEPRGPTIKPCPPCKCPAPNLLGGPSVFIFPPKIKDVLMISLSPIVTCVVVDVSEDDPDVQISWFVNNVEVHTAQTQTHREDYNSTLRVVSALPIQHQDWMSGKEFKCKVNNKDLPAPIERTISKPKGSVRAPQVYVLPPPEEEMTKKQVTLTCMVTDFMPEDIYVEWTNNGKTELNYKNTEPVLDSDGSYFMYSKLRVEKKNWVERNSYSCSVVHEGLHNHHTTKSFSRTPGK

B1: H1H9329P (antibody, human IgG1, V domains shown)
VH: EVQLVESGGGLVQSGGSLRLSCAASGFTFSSYWMSWVRQAPGKGLEWVANIKQDGSEKYYVDSVKGRFTISRDNAKNSLYLQMNSLRADDTAVYYCARDDIVVVPAPMGYYYYYFGMDVWGQGTTVTVSS
VL: DIQMTQSPSSLSASVGDRVTITCRASQGIRNDLGWYQQKPGKAPKRLIYAASSLQSGVPSRFSGSGSGTEFTLTISSLQPEDFATYYCLQHNSYPYTFGQGTKLEIK
Turning to B1, the Kd in assay [1] came to 117000 pM; in assay [2] it was 689 pM; in assay [3] it was 137000 pM; in assay [4], 259 pM; in assay [5], 76900 pM; in assay [6], 386 pM. Further, the koff was 0.329 s⁻¹ in assay [1]; 0.00267 s⁻¹ in assay [2]; 0.364 s⁻¹ in assay [3]; 0.000768 s⁻¹ in assay [4]; 0.135 s⁻¹ in assay [5]; 0.000672 s⁻¹ in assay [6]. Further, the kon in assay [1] was found to be 2.82e+06 M⁻¹ s⁻¹; in assay [2], 3.87e+06 M⁻¹ s⁻¹; in assay [3] it was 2.66e+06 M⁻¹ s⁻¹; in assay [4] it was 2.97e+06 M⁻¹ s⁻¹; in assay [5], 1.76e+06 M⁻¹ s⁻¹; in assay [6] it was 1.74e+06 M⁻¹ s⁻¹. Further, the t1/2 in assay [1] was 0.04 min; in assay [2], 4.3 min; in assay [3] it was 0.03 min; in assay [4], 15 min; in assay [5] it was 0.09 min; in assay [6], 17 min.

B2: H1H8314N (antibody, human IgG1, V domains shown)
VH: EVQLVESGGGVVRPGGSLRLSCAASGFTFDDYGMTWVRQAPGRGLEWVSGIHWHGKRTGYADSVKGRFTISRDNAKKSLYLQMNSLKGEDTALYHCVRGGMSTGDWFDPWGQGTLVIVSS
VL: DIQMTQSPSSLSASLGDRVTITCRASQSINSYLNWYQQKPGKAPKLLIYVASSLQSGVPSRFSGSGSGTEFTLTISNLQPEDFATYYCQQSYSTPPITFGQGTRLEIK
Consider B2, for which, in assay [6], the Kd was 26.3 pM, the koff came out at 6.77e-05 s⁻¹, the kon was found to be 2.58e+06 M⁻¹ s⁻¹ and the t1/2 is 171 min.

B3: H2aM8323N (antibody, mouse IgG2, V domains shown)
VH: QVQLVQSGAEVKMPGSSVRVSCKASGGIFSSSTISWVRQAPGQGLEWMGEIIPVFGTVNYAQKFQDRVIFTADESTTTAYMELSSLKSGDTAVYFCARNWGLGSFYIWGQGTMVTVSS
VL: EIVLTQSPGTLSLSPGERATLSCRASQSFNFNYLAWYQQKPGQAPRLLIYGASSRATGIPDRFSGSGSGTDFTLTINRLEPEDFGVFYCQQYESAPWTFGQGTKVEIK
notes: also called H2M8323N
Take B3: the Kd in assay [1] was 497 pM; in assay [2] it was 28 pM; in assay [3] it was 29500 pM; in assay [4] it was 7.04 pM; in assay [5], 15900 pM. The koff in assay [1] turned out to be 0.000684 s⁻¹; in assay [2], 0.000121 s⁻¹; in assay [3], 0.0282 s⁻¹; in assay [4], 2.05e-05 s⁻¹; in assay [5] it was 0.00868 s⁻¹. Besides, the kon in assay [1] turned out to be 1.38e+06 M⁻¹ s⁻¹; in assay [2] it was 4.32e+06 M⁻¹ s⁻¹; in assay [3], 956000 M⁻¹ s⁻¹; in assay [4] it was 2.91e+06 M⁻¹ s⁻¹; in assay [5], 547000 M⁻¹ s⁻¹. In addition, the t1/2 in assay [1] was 17 min; in assay [2], 96 min; in assay [3], 0.4 min; in assay [4], 565 min; in assay [5] it was 1.3 min.

B4: H1H8323N (antibody, human IgG1, V domains shown)
VH: QVQLVQSGAEVKMPGSSVRVSCKASGGIFSSSTISWVRQAPGQGLEWMGEIIPVFGTVNYAQKFQDRVIFTADESTTTAYMELSSLKSGDTAVYFCARNWGLGSFYIWGQGTMVTVSS
VL: EIVLTQSPGTLSLSPGERATLSCRASQSFNFNYLAWYQQKPGQAPRLLIYGASSRATGIPDRFSGSGSGTDFTLTINRLEPEDFGVFYCQQYESAPWTFGQGTKVEIK
Consider B4, for which, in assay [6], the Kd is 23.1 pM, the koff stood at 6.16e-05 s⁻¹, the kon came to 2.67e+06 M⁻¹ s⁻¹ and the t1/2 came out at 188 min.
